Measurements: US11738096B2, “Method of detecting diseased or damaged tissue with a pH-triggered polypeptide fluorophore composition” (University of Rhode Island Board of Trustees, priority 2016, dated 2023)
Where a SMILES comes first, the peptide text is derived from it. The star is where a group is joined. X1 = CC1(C)C(/C=C/C=C/C=C/C=C2/N(CCCCCC(=O)NCCN3C(=O)CC(*)C3=O)c3ccc4ccccc4c3C2(C)C)=[N+](CCCCS(=O)(=O)[O-])c2ccc3ccccc3c21

Legend:
[1] = test system: urothelial carcinoma in human bladder specimens; assay: Ex vivo NIR fluorescence imaging of radical cystectomy bladder specimens, 60 min instillation
Procedure: 22 urothelial carcinoma patients that were scheduled for radical cystectomy were selected over a twelve month period. After radical cystectomy, bladder specimens were immediately removed and irrigated 3 times for 5 min via catheter with non-buffered saline and instilled and incubated with 80 ml of 8 μM or 32.8 μg/ml (unless otherwise is stated, see notes to Table 8) of ICG-Var3 construct or ICG-Cys in PBS pH 7.4 containing 10 mM D-glucose for 60 minutes. Then, the unbound constructs were removed by rinsing with 80 ml of saline solution 3-5 times, the bladder was irrigated thoroughly with buffered saline and opened using a Y incision on the anterior wall. Using a da Vinci Si near-infrared fluorescence imaging system (Firefly^R), ex vivo fluorescent and white light imaging of the entire bladder and its parts was performed. The fluorescent spots were marked and standard pathological analysis was carried out to explore the correlation between appearance of fluorescent signal and cancer lesions.
The specimen was sectioned and submitted after 24 hour fixation in 10% phosphate-buffered formalin according to the standard institutional grossing manual, with emphasis on the marked areas of the bladder. The sections were processed for routine histology into paraffin-embedded blocks. […]
Statistical parameters were calculated according to the following equations: […]

[2] = test system: 4T1 murine mammary carcinoma; assay: Tumor targeting in mice bearing 4T1 tumors; format: in vivo, mouse; conditions: 20 μM, IV, 16 h
Procedure: Adult female nude mice and female BALB/cAnNHsd mice (Envigo), 20-25 g in body mass were used in the study. Mouse mammary cancer 4T1 cells were subcutaneously implanted in the right flank (8×10^5 cells/0.1 mL/flank) of adult female BALB/cAnNHsd mice. Rat bladder cancer AY27 cells were subcutaneously implanted in the right flank (8×10^5 cells/0.1 mL/flank) of adult female nude mice. When tumors reached approximately 5-6 mm in diameter, single tail vein injection or single intraperitoneal injection of fluorophore-pHLIP® solutions in PBS were performed. Fluorescent constructs were used in amounts of 100 μL of 40 μM, or 100 μL of 20 μM, or 100 μL of 10 μM, or 100 μL of 5 μM. Imaging of mouse was performed at 16 hours after constructs administration. Skin was removed from the tumor site just before imaging while animal was under gas anesthesia, and mice were euthanized immediately after imaging. Tumor, kidney and liver were harvested, imaged and used for histopathological analysis. Imaging was performed using Stryker clinical imaging instrument. Autofluorescence was established by imaging mouse with no injection of fluorescent constructs (the level of autofluorescence signal was insignificant compared to the signal after the constructs administration).

[3] = NIR fluorescence imaging of blood vessels and blood flow (ear, leg, blood samples) in mice; format: in vivo, mouse; conditions: blood collected 5-120 min after IV injection
Procedure: Adult female nude mice (Envigo), 20 g in body mass were used in the study. Fluorescent constructs were given as a single tail vein injection in amounts of 100 μL of 40 μM in PBS. Imaging of mouse ear and leg was performed at 5, 30, 60, 90 and 120 min after construct administration. At 5, 30, 60, 90 and 120 min after construct administration 5 μL of blood was withdrawn from tail (and mixed with 5 μL of anticoagulating solution to preserve blood) while animal was under anesthesia. Mice were euthanized immediately after last imaging point (120 min). Blood collected from all animals was deposited on the glass slide, dried and imaged. Imaging was performed using Novadaq clinical imaging instrument. Autofluorescence was established by imaging mouse with no injection of fluorescent constructs (the level of autofluorescence signal was insignificant compared to the signal after the constructs administration).

CC(C)C[C@H](NC(=O)[C@H](Cc1ccc(O)cc1)NC(=O)[C@H](C)NC(=O)[C@H](CCCNC(=N)N)NC(=O)[C@H](Cc1c[nH]c2ccccc12)NC(=O)[C@@H]1CCCN1C(=O)[C@H](CC(N)=O)NC(=O)[C@H](CCC(N)=O)NC(=O)[C@H](CC(=O)O)NC(=O)[C@H](CC(=O)O)NC(=O)[C@H](CSC1CC(=O)N(CCNC(=O)CCCCCN2/C(=C/C=C/C=C/C=C/C3=[N+](CCCCS(=O)(=O)[O-])c4ccc5ccccc5c4C3(C)C)C(C)(C)c3c2ccc2ccccc32)C1=O)NC(=O)[C@H](C)N)C(=O)N[C@@H](CC(=O)O)C(=O)N[C@@H](CC(C)C)C(=O)N[C@@H](CC(C)C)C(=O)N[C@@H](Cc1ccccc1)C(=O)N1CCC[C@H]1C(=O)N[C@H](C(=O)N[C@@H](CC(=O)O)C(=O)N[C@H](C(=O)N[C@@H](CC(C)C)C(=O)N[C@@H](CC(C)C)C(=O)N[C@@H](CC(C)C)C(=O)N[C@@H](CC(=O)O)C(=O)N[C@@H](CC(C)C)C(=O)N[C@@H](CC(C)C)C(=O)N[C@@H](Cc1c[nH]c2ccccc12)C(=O)N[C@@H](C)C(=O)O)[C@@H](C)O)[C@@H](C)O (stereo partly drawn) [ICG-Var3] (H-AC(X1)DDQNPWRAYLDLLFPTDTLLLDLLWA-OH)
adverse morphological findings in specimens after incubation [1]: did not show any adverse morphological findings
organ of clearance [2]: cleared by the liver
fluorescent signal in blood samples [3]: persistence of strong fluorescent signal within 2 hours
